Reference: publication PMC5764988

The substances below were run against MagD, the Type II alpha-2-macroglobulin from Pseudomonas aeruginosa (Pseudomonas aeruginosa) (UniProt Q9HVT2) (assay: AUC; sedimentation velocity, 35,000 rpm, 20 °C, absorbance at 280 nm; 0.25, 0.5 and 1 mg/mL; 25 mM HEPES pH 7.5, 100 mM NaCl; c(s) analysis with Sedfit; co-purified complexes after analytical gel filtration).

Substance	stoichiometry N
MagA (natural protein)	1
MagB (natural protein)	1
MagF (natural protein)	1
